According to paper PMC9900698, “Phosphorylation Regulation of a Histone-like HU Protein from Deinococcus radiodurans”:
Numbering of substitutions follows the chain as printed.

Key:
[1] = target: T1, DrHU T37E (Deinococcus radiodurans R1 (ATCC13939), UniProt Q9RZ89 1-122, T37E); assay: EMSA; 10 mM Mg2+; EMSA: 50 mM NaCl, 20 mM Tris-HCl pH 8.0, 0.1 mg/ml BSA, 3 mM DTT, 0.1 mM EDTA, 10% glycerol, 10 mM MgCl2, 50 nM DNA, 0-3200 nM DrHU, room temperature 20 min; 22% native PAGE in 1x TB; conditions: protein: recombinant; tags: N-terminal His-MBP (pET28a-HMT), removed by TEV; chain copies: 2; label: 5'-FAM; blunt
T1 sequence: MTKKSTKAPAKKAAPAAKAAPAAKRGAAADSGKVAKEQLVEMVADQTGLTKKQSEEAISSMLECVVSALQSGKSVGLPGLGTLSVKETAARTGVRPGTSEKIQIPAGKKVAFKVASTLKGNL

[2] = target: T2, DrHU T37A (Deinococcus radiodurans R1 (ATCC13939), UniProt Q9RZ89 1-122, T37A); assay: as above; conditions: protein: recombinant; tags: N-terminal His-MBP (pET28a-HMT), removed by TEV; chain copies: 2; label: 5'-FAM; blunt
T2 sequence: T1 sequence with E37A

B1: Duplex DNA (24bp) (dsDNA)
DNA 1: TCAATTATGTCAATGACATAAAAG
DNA 2: CTTTTATGTCATTGACATAATTGA
[1]
  Kd: 1180 ± 95.9 nM
[2]
  binding result: no binding

B2: Duplex DNA (36bp) (dsDNA)
DNA 1: GCAGAGTCAATTATGTCAATGACATAAAAGGCTCAG
DNA 2: CTGAGCCTTTTATGTCATTGACATAATTGACTCTGC
[1]
  Kd: 457 ± 62.9 nM
[2]
  binding result: no binding

B3: Duplex DNA (48bp) (dsDNA)
DNA 1: TAACAAGCAGAGTCAATTATGTCAATGACATAAAAGGCTCAGGCCTTC
DNA 2: GAAGGCCTGAGCCTTTTATGTCATTGACATAATTGACTCTGCTTGTTA
[1]
  Kd: 389 ± 56 nM
[2]
  binding result: no binding
